In the nanobody polyreactivity screen of Harvey et al. (2022):

Test: yeast display, Sf9 membrane polyspecificity reagent, FACS + sequencing; frameworks hold sequencing errors
Outline: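 Genes from sorted yeast were amplified by colony PCR, read by MiSeq 2 × 250 sequencing and filtered on CDR length. These cells carried a synthetic nanobody library in Saccharomyces cerevisiae BJ5465 and were sorted by FACS into low and high (top ~1%) gates on anti-HA and streptavidin fluorescence. Polyreactivity is labelled according to the gate of origin.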

Row | Sequence | polyreactivity (PSR sort gate)
1 | QVQLVESGGGLVQAGGSLRLSCAASGRIFVLYAMGWYRQAPGKERELVAAISTSGGSTYYADSVKGRFTISRDNAKNTVYLQMNSLKPEDTAVYYCAADRSARFLFIQYYPYGMDYWGQGTQVTVSS | high polyreactivity
2 | QVQLVESGGGLVQAGGSLRLSCAASGLTFPPYAMGWYRQAPGKERELVAAISWNGGNTYYADSVKGRFTISRDNAKNTVYLQMNSLKPEDTAVYYCAAKRGTQGMYYWGQGTQVTVSS | high polyreactivity
3 | QVQLVESGGGLVQAGGSLRLSCAASGSILAYNAMGWYRQAPGKEREFVAAITGGVGSTYYADSVKGRFTISRDNAKNTVYLQMNSLKPEDTAVYYCAKRTYHEYNNQFVKYYYWGQGTQVTVSS | high polyreactivity
4 | QVQLVESGGGLVQAGGSLRLSCAASGRIGTNAMGCYRQAPGKERELVAAISKRGGSTHYADSVKGRFTISRDNAKNTVYLQMNSMKPEDTAVYYCAASRAVGYDYWGQGTEVTVSS | high polyreactivity
5 | QVQLVESGGGLVQAGGSLRLSCAASGLTLYKYAMGWYRQADGKVRELVATSRSRGTSTYYADSVKGRFTISRDNAKNTVYLQMNSLKPEDTAVYDCAADYLYRWLFAYNGGMDYCGQGTQVTVSS | high polyreactivity
6 | QVQLVESGGGLVQAGGSLRLSCAASGSTFASYAMGSYRQATGKETELVASITRRGGSTDYADSVKGRFTISRDNAKTTVYLQMNSLKPEDTSVYYAVETAWSYNSNYWFDYWGQGTQVTVSS | high polyreactivity
7 | QVQLVESGGGLVQAGGSLRLSCAASGSTFAYNAMGWYRQAPGKERELVAAISGSTTRTYYADSVKGRFTISRDNAKNTVYLQMNSLKPEDTAVYYCAAGIPFRQRLRRYYYWGQGTQVTVSS | high polyreactivity
8 | QVQLAESGGGLVQAGGSLRLSCAASGSILFNMGWYRQAPGKERELVAAIRYGGGRTYYADSVKGRFTISRDNAKNTVYLQMNSLKPEDTAVYYCAAPYKRNAGFDYWGQGTQVTVSS | low polyreactivity
9 | QVQLVESGGGLDQAGGSLRLSCAASGRTFGYNAMGWYRQAPGKERELVAAINWSGASTYYADSVKGRFTISRDNAKNTVYLQMNSLKPEDTAVYYCAARRKRVSFFPEYDYWGQGTQVTVSS | low polyreactivity
10 | QVQLVESGGGLVQAGGSLRLSCAASGSIFRSYAMGWYRPAPGKERELVAAISSGGRTKYADSVKGRFTISRDNAKNTVYLQMNSLKPEDTAVYYCAARAYYARFLMGYWGQGTQVTVSS | high polyreactivity
11 | QVQLVESGGGLVQAGGSLRLSCAASGRTFRYYAMGWYRQEPGKERELVAVITSGASTYYADSVKGRFTISRDNAKNTVYLQMNCLKPEDTAVYYCNARYSWKYDSWGQGTQVTVSS | high polyreactivity
12 | QVQLVESGGGLVQAGGSLRLSCAASGRILGGNAMGWYRQAPGKERELVAAITSGGTTNYADSVKGRFTISRDNAKNTVYLQMNSLKPEDTAVYYCNADWTDGDWADMDYWGQGTQVTVSS | low polyreactivity
13 | QVQLVESGGGLVQAGGSLRLSCAASGRTFVNNAMGWYRQAPGKERELVAAISQSGSRTYYADSVKRRFTISRDNAKNSVYLQMNSLNTEDTAVYDCAARGARSSTSDDWGQGTQVTVSS | high polyreactivity
14 | QVQLVESGGGLVQAGGSLRISCAASGFTFHTYAMGWYRQAPGKERELVAAIDSSGGITYYADSVKGRFTISRDNAKNTVYLQMTSLKPEDTAVYYCAAVFLLFGFEWSYDYWGQGTQVTVSS | low polyreactivity
15 | QVQLVESGGGLVQAGGSLRLCCAASGIIFYSYAMGWYRQAPGKEREFVAAITNSDGSTYYADSVKGRFTISRDNAKNTVYLQMNSVKPEDTAVYMFYWGQGTQVTVSS | low polyreactivity
16 | QVQLVESGGGLVQAGGSLRLSCAASGSTFGVYAMGWYRQAPGKERELVAAISGSGGSTYYADSVKGRFTISRDNAKNTVYLQMNSLKPEDTAVYYCAAKVRHYYSASNYYYWGQGTQVTVSS | high polyreactivity
17 | QVQLVESGGGLVQAGGSLRLSCAASGRTFQFYVMGWYRQAPGKERELLASIRSGGSTNYADSVKGRFTISRDNAKNTVYLQMNSLKPEDTAVYYCNADAYGTPEFTSYAVRYDYWGQGTQVTVSS | low polyreactivity
18 | QVQLVESGGGLVQAGGSLRLSCAASGRIFPSYAMGWYRPAPGKERELVAAITRGSTTYYADSVKGRFTISRDNAKNTVYLQMNSLKPEDTAVYYCAAEENLAYYFKYYYWGQGTQVTVSS | low polyreactivity
19 | QVQLVESGGGLVQAGGSLRLSCAASGFIFYKNAMGLYRQAPGKERELVAAISRRGSSTYYADSVKGRFTISRDNAKNTVYLQMNSLKPEDTAVYYCAARFTRRDYWGQGTQVTVSS | high polyreactivity
20 | QVQLVESGGGLVQAGGSLRLSCAASGRIFSYYAMGWYRQAPGKERELVAAITKSGGSTFYADSVKGRFTISRDNAKNTVYLQMNSLKPEDTAVYYCAAEVTLEDWGYSWKYDYLGQGTQVTVSS | high polyreactivity
21 | QVQLVESGGGLVQAGGSLRLSCAASGTFYKYAMGWYRQAPGKERELVAAISWRGGRTYADSVKGRFTISRDNANNTVYLQMNSLKPEDTAVYYCAAEYRYDWYTYGYWGQGTQVTVSS | high polyreactivity
22 | QVQLVESGGGLVQAGGSLRLSCAASGSTFRYYAMGWYRQAPGKERELVAAISRSGGRTYYADSVKGRYTISRDYAKKTVYLQMNSLKPEDTAVYYCAVDIVSIRGYTYGYWGQGTQVTVSS | high polyreactivity

Row | Sequence | polyreactivity (PSR sort gate)
23 | QVQLVESGGGLVQAGGSLRLICAASGFIFWDNAMGWYRQAPGKERELVAAISKSGTRTYYADSVKGRFTISRDNEKNTVYLQMNSLKPEDTAVYYCAAEGSGYEYYYWGQGTQVTVSS | high polyreactivity
24 | QVQLVESGGGLVQAGGSLRISCAASGSTFRRYAMGWYRQAPGKEREFVAVITSSGVITYYADSVKGRFTISRDNAKNTVYLQMNSLKPEDTAVYYCATDARSMDYWGQGTQVTVSS | low polyreactivity
25 | QVQLVESGGGLVQAGGSLRLSCAASGRIFGVYAMGWSRQAPGKERELVAAITARGGSTYYADSVKGRFTISRDNAKNTVYLQMNSLKPEDTAVYYCNAARSTSRPYDYWGQGTQVTVSS | high polyreactivity
26 | QVQLVESGGGLVQSGGSLRLSCAASGSTFTSNTMGCYRQAPGKESEIVAGITWRGGSTYYADSVKGRFTISRDNAKNTVYLQMNSLKPEDTAVYYCAAYGYSKDVWNFYYWGQGTQVTVSS | low polyreactivity
27 | QVQLVESGGGLVHAGGSLRLSCAASGSIFQGYAMGRYRQAPGKERDLVAAITASGGSTYYADSVKGRFTISRDNAKNTVYLQMNSLKPEDTAVYYCATDSYWRQDLYRYEYWGQGTQVTVSA | high polyreactivity
28 | QVQLVESGVGLVQAGGSLRLSCAASGITFYSYAMGWYRQAPGKERELVAAITLTGGTTYYADSVKGRFTISRDNAKNTVYLQMKSLKPEDTAVYYCAAQYWWWSLFEYDSWGQGTQVTVSS | low polyreactivity
29 | QVQLVESGGGLVQAGGSLRLSCAASGSIFPYNVMGWYRQAPGKERELVAAISTRGGRTYYADSVKGRFTISRDNAKNTVYLQMNSLKPEDTAVYYCATAGGPYSASGYYWGQGTQVTVSS | high polyreactivity
30 | QVQLVESGGGLVQAGGSLRLSCAASGRIFSQNAMGWYRQAPGKERELVAAISGGSTNYADSVKGRFTISRDNAKNTVFLQMNSLKPEDTAVYYCAADAPFKMDYWGQGTQVTVSS | low polyreactivity
31 | QVQLVESGGGVFQAGGSLRLSCAASGSIYAFNPMGWYRQAPGKETEFVASIRSSTGRTYYADSVKGRFTISRDNAKNTVYLQMNSLKPEDTAVYYCAADSPEKPPRRWYITWPDGYWGQGTQVTVSS | low polyreactivity
32 | QVQLVESGGVLVQAGGSLRLSCAASGSTFVTNAMGWYRQAPGKEREFVAAISNSSGSTYYADSVKGRFTISRDNAKNTVYLQMNSLKPEDTAVYYCNATPDDWLQEDYWGQGTQVTVSS | low polyreactivity
33 | QVQLVESGARLVQAGGSLRLSCAASGRTFSTYTMGWYRQAPGKERELVAAITSSGGGTYYADSVKGRFTISRDTAKNTVFLQMNSLKPEDTAVYYCATVRTYRPPVRRGYWGQGTQVTVSS | high polyreactivity
34 | QVQLVESGGGRVHAGGSHRISCAASGSIFGRYAMGGYRQAPRQDREVVAAISSRGGSTYYADTVKGRFTISRDNAKNTVYLQMTSLKPEDTAFYYCAKENWCTSYYARYDDWGQGTQVTVSS | high polyreactivity
35 | QIQLVESGGGLVQAGGSLRLSCAASGSIFSGYAMGWYRQAPGKERELVAAITSGGSTDYADSVKGRFTISRDNAKNTVYLQMNSLKPEDTAVYYCAAEGGYSSYGYDYWGQGTQVTVSS | low polyreactivity
36 | QVQLVEAGGGLVQAGGSLRLCCAASGSTFVHYAMGWYRQAPGKERELVAAITTSGTGTFYADSVKGRFTISRENAKNNVYLQMNSLKPEETAVNYCAADIYPVWIYLLYVYWGQGTQVTVSS | low polyreactivity
37 | QVQLVESGGGLVQAGGSLRLSCAASGRTFTVYAMGWYRQAPGKERELVAAIIYSGGRTYYADSVKGRFTISRDNAKNTVYLQMNSLKPEDTAVYYCAAYVYQSCPRFSRYGGYDYWGQGTQVTVSS | low polyreactivity
38 | QVQLVESGGGLVQAGGSLRLSCAASGFILQRYAMGWYRKAPGKERELVAAITSSGGRTYYADSVKGRFTISRDNANNTVYLQMNSLKPEDTAVYYCNTVLVYYRMIKFEYWGQGTQVTVSS | high polyreactivity
39 | QVQLVESGGGLVQAGGSLRLSCAASGFIFSIYAMGWYRQAPGKERELVAAISKSGGRTYYADSVKGRFTISRDNAKNTVYLQMNSLKPEDTAVYYCAVDPYYKYDYWGQGTQVTVSS | high polyreactivity
40 | QVQLVESGGGLVQAGGSLRLSCAASGITFDANAMGWYRQAPGKERELVARISSGGSTNYADSVKGRFTISRDNAKNTVYLQMNSLKPEDTAVYYCNTDLTGLDAEYDYWGQGTQVTVSS | low polyreactivity
41 | QVQLVESGGGLVQAGGSLRLSCAASGSTFPLNAMGWYRQAPGKESEFLDAISYRGSSTYYADSVKGRFTISRDNAKNTVYLQMNSLKPEDTAVYYCSANPNTYYYRRGYDYWGQGTQVTVSS | high polyreactivity
42 | QVQLVESGGGLVQAGGSLRLSCAASGSTFDGNAMGWYRQAPGKERELVATITRRGGSTNYADSVKGRFTISRDNAKNTVYLQMNSLKPEDTAVYYCATADAHSSAAGEDYWGQGTQVTVSS | low polyreactivity
43 | QVQLVESGGGLVQAGGSLRLSCAASGRTFYPYAMGWYRQAPGKERELVATITWSGTTTYYADSVKGRFTISRDNAKNTVYLQMNSLKPEDTAVYYCAADVWEVVTPYGTIDDDYWGQGTQVTVSS | high polyreactivity
